Test [1] has as its target T1, VCAM-1/IgG1 fusion protein (seven extracellular immunoglobulin-like domains) (UniProt P19320).
T1 sequence (looked up): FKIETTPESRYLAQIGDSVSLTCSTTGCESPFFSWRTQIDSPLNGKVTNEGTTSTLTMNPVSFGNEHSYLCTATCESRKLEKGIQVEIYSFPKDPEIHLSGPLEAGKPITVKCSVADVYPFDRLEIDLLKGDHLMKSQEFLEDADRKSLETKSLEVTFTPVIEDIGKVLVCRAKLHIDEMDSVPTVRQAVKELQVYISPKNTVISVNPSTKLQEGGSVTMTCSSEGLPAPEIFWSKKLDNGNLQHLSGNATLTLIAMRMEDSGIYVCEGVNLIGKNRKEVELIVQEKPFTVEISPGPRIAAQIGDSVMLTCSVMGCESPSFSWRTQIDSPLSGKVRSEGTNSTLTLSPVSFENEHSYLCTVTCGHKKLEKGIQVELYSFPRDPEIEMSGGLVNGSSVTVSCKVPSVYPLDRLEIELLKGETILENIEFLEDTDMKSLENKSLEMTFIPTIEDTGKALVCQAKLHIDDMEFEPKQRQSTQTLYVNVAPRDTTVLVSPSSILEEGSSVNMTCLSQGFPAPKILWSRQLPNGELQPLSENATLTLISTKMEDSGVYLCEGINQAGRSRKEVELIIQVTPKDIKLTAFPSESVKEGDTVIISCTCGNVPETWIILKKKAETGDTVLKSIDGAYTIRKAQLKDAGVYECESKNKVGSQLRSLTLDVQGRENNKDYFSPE
Kind of test: ELISA, Iαd/IgG4 on immobilized CAM/IgG, detection with anti-IgG4 HP6023. A general note: In an ELISA, binding on a coated surface is turned into a signal by an enzyme label.

For test [2], the target named is mutant two domain VCAM-1 fused to human immunoglobulin Fc (substitution at residue 40) (human) (UniProt P19320). Kind of test: adhesion of transfected CHO cells to immobilized CAM, crystal violet, A570.
Test [3] addresses recombinant VCAM-1 (commercial preparation, R & D Systems) (UniProt P19320). Kind of test: cell-based or functional assay.
The target in test [4] is immobilized CD11b/CD18 (human) (UniProt P05107). Kind of test: ELISA, plate format; sentence unclear.
Test [5] deals with LFA-1 leucine zipper fusion protein (UniProt P20701). Kind of test: ELISA, plate format; sentence unclear.
Test [6] has as its target soluble ICAM-R/IgG1 fusion protein (UniProt P32942). Kind of test: ELISA, soluble integrin in supernatant on immobilized ICAM/Ig.

Sequence of human αd I domain/IgG4 fusion protein (P01861 other isoform, or with tags, fused parts or gaps): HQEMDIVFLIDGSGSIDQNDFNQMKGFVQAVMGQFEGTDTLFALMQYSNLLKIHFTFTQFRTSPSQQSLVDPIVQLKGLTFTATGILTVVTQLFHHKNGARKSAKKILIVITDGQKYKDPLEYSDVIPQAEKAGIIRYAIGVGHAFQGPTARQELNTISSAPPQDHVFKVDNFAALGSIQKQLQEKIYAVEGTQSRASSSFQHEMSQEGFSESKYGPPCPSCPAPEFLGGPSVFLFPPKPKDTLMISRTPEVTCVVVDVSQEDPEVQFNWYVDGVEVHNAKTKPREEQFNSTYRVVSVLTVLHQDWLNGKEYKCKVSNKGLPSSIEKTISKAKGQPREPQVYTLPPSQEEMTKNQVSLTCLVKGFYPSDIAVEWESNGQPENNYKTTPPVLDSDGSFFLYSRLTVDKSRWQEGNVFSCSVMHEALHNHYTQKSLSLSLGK
Sequence of soluble ICAM-R/IgG1 fusion protein (P32942 30-485 limits assumed): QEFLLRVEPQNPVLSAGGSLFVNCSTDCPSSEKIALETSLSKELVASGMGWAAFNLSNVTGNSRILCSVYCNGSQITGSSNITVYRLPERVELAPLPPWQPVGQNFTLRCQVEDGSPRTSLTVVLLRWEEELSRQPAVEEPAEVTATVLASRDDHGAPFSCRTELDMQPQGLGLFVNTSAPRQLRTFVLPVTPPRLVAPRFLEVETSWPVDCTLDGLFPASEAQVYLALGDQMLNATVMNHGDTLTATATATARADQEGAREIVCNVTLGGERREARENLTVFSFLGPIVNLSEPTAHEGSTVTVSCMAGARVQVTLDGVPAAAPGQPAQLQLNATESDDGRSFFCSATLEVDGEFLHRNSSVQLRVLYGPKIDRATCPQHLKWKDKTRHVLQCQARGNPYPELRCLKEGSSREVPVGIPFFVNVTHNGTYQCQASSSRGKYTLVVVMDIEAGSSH

“human αd I domain/IgG4 fusion protein (from UniProt P01861 99-327) (Fc fusion)”: the fold higher than background in test [1] fell in the range of 7 to 10 fold.
With “human αd/CD18 expressed on transfected cells (from UniProt P05107 23-769) (receptor)”, the binding as percent of that with wild-type VCAM-1 in test [2] turned out to be 50%.
For the substance “native human αd/CD18 on human cells (from UniProt Q13349 18-1161; P05107 23-769) (receptor)”, in test [3], the binding rate of IL-5 cultured eosinophils to immobilized VCAM-1 is 28.8%, the binding rate of IL-5 cultured eosinophils to immobilized VCAM-1 in the presence of a monoclonal antibody against α4 is 18.1% and the binding rate of IL-5 cultured eosinophils to immobilized VCAM-1 in the presence of an anti-CD18 monoclonal antibody was determined as 17.1%.
“soluble human αd/CD18 leucine zipper heterodimer (from UniProt P05107 23-700) (receptor)”: the results for the fold greater than background binding in test [4] and in test [5] were 15 fold and 5 fold, respectively. The substance further came in with a fold over control well containing no antibody in test [6] of 10 fold.
